# Test results from the supplement of paper PMC9170038.
# Tested on: MS2 coat protein
# Test: apparent KD of MS2 coat protein; designed switch direction (-1 OFF switch, 1 ON switch): -1; higher = weaker reporter binding
# In short: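 Designed RNA switches with common flanks were transcribed on Illumina chips by stalled E. coli RNA polymerase and titrated with SNAP-549-labelled MS2 coat protein, from 0.7 or 1.5 nM doubling to 3 µM, in Tris-HCl pH 7.5 buffer with KCl, MgCl2, BSA, DTT, tRNA and Tween-20. Steps lasted 0.8–1.5 h (lowest) to 10–20 min (highest). Titrations ran without input, with 200 uM small-molecule ligand, or with an oligonucleotide input. Normalised cluster fluorescence was curve-fitted, and apparent KD is the per-design median over clusters.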
# [1] = Eterna round: R95, input ligand: FMN 200 uM
# [2] = Eterna round: R95, input ligand: microRNA oligo, concentration not stated
# [3] = Eterna round: R95, input ligand: none
# [4] = input ligand: microRNA oligo, concentration not stated
Sequence,apparent KD of MS2 coat protein [1],apparent KD of MS2 coat protein [2],apparent KD of MS2 coat protein [3],apparent KD of MS2 coat protein (input ligand: FMN 200 uM),apparent KD of MS2 coat protein [4],apparent KD of MS2 coat protein (input ligand: none)
"AGUACUAACACGAAAGUGUUAGUACAAUAAGCUUGUGUUACAUGAGGAUCACCCAUGUCCUCAUAAGCUCGUCUUAG [Mat - Sensor v3 - Turn-off var 2 - D50] (puzzle: Sensor v3, turn-off variant 2)",45.9 nM,351 nM,45.4 nM,–,–,–
"AGUACUAACACGGAUGUGUUAGUACAAUAAGCUUGUGAAACAUGAGGAUCACCCAUGUCCUCAUAAGCUCGUCUUAU [salish99_TOv2_r3_067] (puzzle: Sensor v3, turn-off variant 2)",15.5 nM,677 nM,14.7 nM,–,–,–
"AGUACUAACACGUCGGUGUUAGUACAAUAAGCUUGUGAAACAUGAGGAUCACCCAUGUCCUCAUAAGCUCGUCUUAU [salish99_TOv2_r3_080] (Eterna round: R96, puzzle: Sensor v3, turn-off variant 2)",–,–,–,16.4 nM,492 nM,17.8 nM
"AGUACUAACACGUCGGUGUUAGUACAAUAAGCUUGUGAAACAUGAGGAUCACCCAUGUCCUCAUAAGCUCGUCUUAU [salish99_TOv2_r3_080] (puzzle: Sensor v3, turn-off variant 2)",17.4 nM,575 nM,15.5 nM,–,–,–
"AGUACUAUCGCGAAAGCGAUAGUACAAAAAGCAAGUGAAACAUGAGGAUCACCCAUGUCCUCAUUUGCUCGUCUUAU [Mat - Sensor v2 -ver2- JL mod - D89] (Eterna round: R96, puzzle: Sensor v2, turn-off variant 2)",–,–,–,12.1 nM,390 nM,14.3 nM
"AGUACUGACGCGUCGGUGUUAGUACAAUAAGCUUGUGAAACAUGAGGAUCACCCAUGUCCUCAUAAGCUCGUCUUAU [salish99_TOv2_r3_082] (puzzle: Sensor v3, turn-off variant 2)",15.9 nM,720 nM,15.4 nM,–,–,–
"AGUAGAUCUACGCUUGCGUGGAUCUGCUAUGCAGGUGUUACAUGAGGAUCACCCAUGUCCUCAUUUGUUCGUCUUAU [JL turnoff v2 99.15] (puzzle: Sensor v3, turn-off variant 2)",135 nM,111 nM,185 nM,–,–,–
"AGUAGGUCUACCUUGGUGGAUCUGCAUAAAGCAAGUGAUACAUGAGGAUCACCCAUGUCCUCAUUUGCUCGUCUUAU [JL turnoff v2 99.21] (puzzle: Sensor v3, turn-off variant 2)",14 nM,216 nM,14.1 nM,–,–,–
"AGUAGUAGUAUCCGAUCUUACAUGAGGAUCACCCAUGUUUCUAGACGUGCACGCGAUGCUCGUCAGACUACCAGAUG [salish99_TOv1_r3_053] (puzzle: Sensor v3, turn-off variant 1)",128 nM,173 nM,174 nM,–,–,–
"AGUAGUUCAGGAUAUGAUGAAGAGAACAUGAGGAUCACCCAUGUUGCAUCGUUUUUAUCAUCAGAAGGGAAUAACU [JR_Ex5_Sub085] (Eterna round: R97, puzzle: Exclusion 5)",–,–,–,12.7 nM,–,13.1 nM
"AGUAGUUGUUUCCGUUCUUACAUGAGGAUCACCCAUGUUUCUUGUCGUGCUCGCGAUGCUCGUCAGACUACCAGAUG [salish99_TOv1_r3_059] (Eterna round: R96, puzzle: Sensor v3, turn-off variant 1)",–,–,–,63 nM,40.6 nM,59.1 nM
"AGUAGUUGUUUCCGUUCUUACAUGAGGAUCACCCAUGUUUCUUGUCGUGCUCGCGAUGCUCGUCAGACUACCAGAUG [salish99_TOv1_r3_059] (puzzle: Sensor v3, turn-off variant 1)",53.4 nM,65.7 nM,72.8 nM,–,–,–
"AGUAUGUCAGGAUAUCUCGGGUAGUCCACAACAGCUACCGAAGAGAAGGGACAUGAGGAUCACCCAUGUACCAU [EX4 B.23] (Eterna round: R97, puzzle: Exclusion 4)",–,–,–,19.4 nM,–,30.6 nM
AGUCCACAUGAGGAUCACCCAUGUCAGGAUAUCUGCUGGAAGAGGGCAGAAAGCCAGGAGAGAAGGGACCUGGG [Usarila] (puzzle: Exclusion 1),–,34 nM,–,–,–,–
"AGUCCUGGAGUUAGGAUAUGGAGUAUCACUGCACUUCAGAAGGGACUUGAGGAUCACCCAAGUAGCCGUGAGGG [salish99_bmod_ex4_r4_004] (Eterna round: R97, puzzle: Brourd's mod of Exclusion 4)",–,–,–,74.3 nM,–,49.2 nM
"AGUCGGCGAGGAUAUACAUGAGGAUCACCCAUGUGAGAGAAUAAAGUGAGUUAGACAAGUAGAAGGCGCUGACA [JL Lego Mod 10] (Eterna round: R96, puzzle: Exclusion 3)",–,–,–,356 nM,40.9 nM,48.1 nM
AGUCGGCGAGGAUAUACAUGAGGAUCACCCAUGUGAGAUAGUGCACGCGUACGUGUACGUAGAAGGCGCUGACA [Mat - Exclusion 3 - Mod of JL D94] (puzzle: Exclusion 3),–,11.1 nM,–,–,–,–
AGUCUGCGAGGAUAUACAUGAGGAUCACCCAUGUGCGAGAUACUAGUGAGGUCGAUUGGUAGAAGGCGCGGACA [Mat - Exclusion 3 - Mod of JL D86] (puzzle: Exclusion 3),–,84.5 nM,–,–,–,–
AGUGCGUAUGUGAGGAUAUGCUGGUCCUUGGAUCGGCAGAAGGUACAUGAGGAUCACCCAUGUGGUGUCGUUCU [salish99_Bmod_ex4_104] (puzzle: Brourd's mod of Exclusion 4),94 nM,409 nM,261 nM,–,–,–
"AGUGGGCGCGUAGGAUAUGAGGAUCACCCAUAGAAGGAUAUCGAAAGAGAAGGUCUGAGGAUUACCCAGAAGGACGGGUUUGUA [pwkr exNG2 2xF5 2xFMN.15] (Eterna round: R96, puzzle: Exclusion NG 2)",–,–,–,925 nM,278 nM,232 nM
AGUGGGCUAGGAUAUCGAUGAACUCACAUGAGGAUCACCCAUGUGUCUUUGGUGGGCGCACGAGAAGGAGUAAGAU [Tiorat] (puzzle: Exclusion 5),–,36.5 nM,–,–,–,–
"AGUGUCAAGCAAGCAAGGAACAUGAGGAUCACCCAUGUCGUACAAUAAACGCCCGCUCGUCGCACGUCGUGCGUAGA [Eternabot (Original) Solution 18] (Eterna round: R97, puzzle: Sensor, turn-off variant 1)",–,–,–,34.3 nM,–,27.2 nM
"AGUGUGAUAGGAUAUACAUGAGGAUCACCCAUGUGAAUGGUAAUGUGUCCAAGAUCAGGUAGAAGGGUCGGGUU [Eternabot (L1) Solution 56] (Eterna round: R97, puzzle: Exclusion 3)",–,–,–,83.6 nM,–,101 nM
"AGUUAUUCAGGAUAUGGUGUGUUAUACAUGAGGAUCACCCAUGUGGAUCCUGGUUAGGCCUCAGAAGGGAAUGUUA [salish99_ex5_r4_126] (Eterna round: R97, puzzle: Exclusion 5)",–,–,–,412 nM,–,435 nM
"AGUUGGCGAGGAUAUACAUGAGGAUCACCCAUGUGAGAGAUACGAGUGAGGUCGAUUAGUAGAAGGCGCUGACA [Mat X3R4 m14] (Eterna round: R97, puzzle: Exclusion 3)",–,–,–,984 nM,–,161 nM
"AGUUGGCGAGGAUAUACAUGAGGAUCACCCAUGUGAGAGAUACUGGUGAGGUCGAUUAGUAGAAGGCGCUGACA [Mat X3R4 m15] (Eterna round: R97, puzzle: Exclusion 3)",–,–,–,137 nM,–,654 nM
"AGUUGGCGAGGAUAUACAUGAGGAUCACCCAUGUGAUAUUAAAGUGAGGAAAUGAAAAGUAGAAGGCGCUGACA [Mod of Mat 24 - Jieux - Exclusion 3] (Eterna round: R97, puzzle: Exclusion 3)",–,–,–,662 nM,–,47.3 nM
"AUAAAACAUGAGGAUCACCCAUGUCAGGAUAUACGAUUCCACCCUAACUGCGUGGAACGUAGAAGGGACAUAGG [Exclusion 1 (MOD6 Esqu)] (Eterna round: R97, puzzle: Exclusion 1)",–,–,–,62.7 nM,–,76.4 nM
AUAAACCUAGGAUAUACAUGAGGAUCACCCAUGUAAGGGCAAUGCCCAUGCUCCUCAUGUAGAAGGAGGAGCAG [Xezausa] (puzzle: Exclusion 3),–,20.2 nM,–,–,–,–
AUAAAGUCAGGAUAUCGAAGUGAGUGGUGGAGGGUAAGGUACGAGAAGGGACAUGAGGAUCACCCAUGUAGGAA [JR_Exclusion4)Sub005] (puzzle: Exclusion 4),24 nM,27.2 nM,29.5 nM,–,–,–
